In PMC2206118:

Assays:
FIR1+2 WT (FIR RRM1+2) [1] = target: T1, FIR1+2 WT (FIR RRM1+2) (human, UniProt Q9UHX1-2 101-299, R106G;C112S;C238A); test: fluorescence anisotropy
FIR1+2 F254L = FIR1+2 F254L (human, UniProt Q9UHX1-2 101-299, R106G;C112S;C238A;F254L); test: fluorescence anisotropy
FIR1+2 Y115L = FIR1+2 Y115L (human, UniProt Q9UHX1-2 101-299, R106G;C112S;C238A;Y115L); test: fluorescence anisotropy
FIR1+2 F157L = FIR1+2 F157L (human, UniProt Q9UHX1-2 101-299, R106G;C112S;C238A;F157L); test: fluorescence anisotropy
FIR1+2 WT (FIR RRM1+2) [2] = target: T1, FIR1+2 WT (FIR RRM1+2); test: X-ray crystallography

T1 sequence (Q9UHX1 118-316 R123G/C129S/C255A): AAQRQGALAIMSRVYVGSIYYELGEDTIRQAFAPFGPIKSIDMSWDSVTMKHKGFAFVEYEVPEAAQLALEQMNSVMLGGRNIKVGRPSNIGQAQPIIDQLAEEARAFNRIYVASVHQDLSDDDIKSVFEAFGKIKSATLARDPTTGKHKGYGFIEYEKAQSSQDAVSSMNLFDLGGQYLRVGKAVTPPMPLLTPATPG
Sequence of FIR1+2 F157L (Q9UHX1 118-316 R123G/C129S/F174L/C255A): as the sequence (Q9UHX1 118-316 R123G/C129S/C255A) above, with F57L counted along it
Sequence of FIR1+2 F254L (Q9UHX1 118-316 R123G/C129S/C255A/F271L): as the sequence (Q9UHX1 118-316 R123G/C129S/C255A) above, with F154L counted along it
Sequence of FIR1+2 Y115L (Q9UHX1 118-316 R123G/C129S/Y132L/C255A): as the sequence (Q9UHX1 118-316 R123G/C129S/C255A) above, with Y15L counted along it

Binder | Kd (FIR1+2 WT (FIR RRM1+2) [1]) [µM] | Kd (FIR1+2 F254L) [µM] | Kd (FIR1+2 Y115L) [µM] | Kd (FIR1+2 F157L) [µM] | binding result (FIR1+2 WT (FIR RRM1+2) [2])
CCTCGGGATTTTTTATTTTGTGTTATT (ssDNA) [H27 (FUSE), fluorescein] | 2.3 ± 1.8 | 0.17 ± 0.13 | 81 ± 31 | 140 ± 85 | –
TCGGGATTTTTTATTTTGTGTTATT (ssDNA) [H25 (FUSE)] | – | – | – | – | binds
